Data as given in US20160000936A1 (AbbVie / Abbott, published 2016).

T1: murine IL-17 (mouse, UniProt Q62386 26-158)
T1 construct: also called mouse IL-17
T1 sequence (looked up): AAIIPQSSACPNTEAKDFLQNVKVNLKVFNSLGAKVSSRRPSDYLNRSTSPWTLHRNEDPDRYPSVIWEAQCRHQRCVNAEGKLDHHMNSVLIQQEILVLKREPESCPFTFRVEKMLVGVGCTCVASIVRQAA

T2: murine TNF (mouse, UniProt P06804 80-235)
T2 construct: also called mouse TNFα; TNFα
T2 sequence (looked up): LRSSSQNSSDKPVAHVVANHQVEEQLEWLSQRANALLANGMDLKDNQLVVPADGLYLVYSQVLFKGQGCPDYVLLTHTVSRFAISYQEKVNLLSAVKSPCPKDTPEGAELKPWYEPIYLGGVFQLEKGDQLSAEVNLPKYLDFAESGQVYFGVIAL


Key:
murine IL-17 = target: T1, murine IL-17; experiment: assay not described; table titled 'Source And Binding Information'
murine TNF = target: T2, murine TNF; experiment: as above

Row | Binder | IC50 (murine IL-17) [nM] | IC50 (murine TNF) [nM]
1 | anti-mouse TNF/IL-17 DVD-Ig protein 8C11/10F7M11 (bispecific antibody, human IgG1, kappa, L234A L235A, The constant regions of the protein actually assayed are therefore uncertain; also called 8C11/10F7-DVD-Ig protein; 8C11/10F7M11 anti-TNF/IL-17 DVD-Ig protein) heavy: not shown light: QIVLSQSPAILSASPGEKVTMTCRASSSVSYMHWFQQKPGSSPKPWIYATSNLASGVPARFSGSGSGTSYSLTISRVEAEDAATYYCQQWSSSPLTFGAGTKLELKRGGSGGGGSGQIVLTQSPAIMSASPGEKVTMTCSASSSISYIYWFQQKPGTSPKRWIYATFELASGVPARFSGSGSGTSYSLTISSMEAEDAATYYCHQRSSYPWTFGGGSKLEIKRTVAAPSVFIFPPSDEQLKSGTASVVCLLNNFYPREAKVQWKVDNALQSGNSQESVTEQDSKDSTYSLSSTLTLSKADYEKHKVYACEVTHQGLSSPVTKSFNRGEC | 0.13 | 2
2 | anti-murine TNF antibody 8C11 (antibody, mouse IgG2c, V domains shown, also called 8C11 anti-TNF antibody; anti-TNFα antibody 8C11) VH: EFQLQQSGPELVKPGASVRISCKASGYSFTDYNMNWVKQSNGKSLEWVGVINPNYGSSTYNQKFKGKATLTVDQSSSTAYMQLNSLTSEDSAVYYCARKWGQLGRGFFDVWGTGTTVTVSS VL: QIVLSQSPAILSASPGEKVTMTCRASSSVSYMHWFQQKPGSSPKPWIYATSNLASGVPARFSGSGSGTSYSLTISRVEAEDAATYYCQQWSSSPLTFGAGTKLELKR | – | 2
